± gives the uncertainty stated by the source.
B1: GA-binding protein alpha chain, residues 172 to 250; numbered along this chain, Q06546 (parent)
chain: GYRKEQERLGIPYDPIQWSTDQVLHWVVWVMKEFSMTDIDLTTLNISGRELCSLNQEDFFQRVPRGEILWSHLELLRKY

Variants of: B1
Test: abundance fitness (aPCA) (normalised: wild type 0, dead -1); higher = more abundant; growth selection in yeast, the domain comes from the species named
Settings: Homo sapiens

Abundance fitness of substitutions, site by site:
V27: M -0.106 ± 0.056 | Q -0.271 ± 0.051 | L -0.194 ± 0.032 | Y -0.197 ± 0.091 | K -0.478 ± 0.073 | C -0.073 ± 0.062 | R -0.436 ± 0.03 | E -0.913 ± 0.19 | H -0.758 ± 0.1 | G -0.037 ± 0.028 | T -0.245 ± 0.042 | D -0.75 ± 0.12 | F -0.256 ± 0.071 | P -0.668 ± 0.062 | N -0.818 ± 0.42 | S -0.171 ± 0.031 | W -0.732 ± 0.054 | I -0.059 ± 0.067
D14: N -0.072 ± 0.06 | W -0.651 ± 0.055 | Y -0.57 ± 0.11 | K -0.793 ± 0.23 | P -0.596 ± 0.066 | M -0.784 ± 0.081 | T -0.868 ± 0.24 | E -0.15 ± 0.049 | A -0.369 ± 0.043 | H -0.147 ± 0.078 | L -0.766 ± 0.061 | I -0.94 ± 0.15 | V -0.856 ± 0.071 | Q -0.344 ± 0.08 | S -0.205 ± 0.036 | C -0.393 ± 0.048 | G -0.805 ± 0.049 | F -1.01 ± 0.18 | R -0.954 ± 0.064
Q22: V -0.992 ± 0.097 | Y -0.763 ± 0.19 | R -0.998 ± 0.094 | I -0.899 ± 0.18 | W -1 ± 0.18 | P -0.991 ± 0.12 | A -0.295 ± 0.052 | C -0.543 ± 0.12 | M -0.219 ± 0.06 | F -0.792 ± 0.16 | D -0.072 ± 0.11 | T -0.875 ± 0.091 | E 0 ± 0.027 | H -0.052 ± 0.085 | S -0.646 ± 0.052 | N -0.039 ± 0.098 | K -0.787 ± 0.2 | G -0.88 ± 0.063
E33: A -0.139 ± 0.05
S19: D -0.048 ± 0.072 | R -0.14 ± 0.029 | C -0.487 ± 0.065 | F -0.849 ± 0.12 | E -0.311 ± 0.057 | T 0.05 ± 0.073 | Y -0.65 ± 0.14 | M -0.836 ± 0.14 | W -0.927 ± 0.11 | Q -0.225 ± 0.053 | L -0.864 ± 0.094 | G -0.34 ± 0.035 | A -0.664 ± 0.062 | H -0.096 ± 0.17 | N -0.053 ± 0.11 | K -0.281 ± 0.077 | V -0.996 ± 0.1 | P -0.82 ± 0.1
D21: T -0.114 ± 0.055 | I -0.36 ± 0.068 | S -0.029 ± 0.036 | G -0.002 ± 0.031 | L -0.414 ± 0.042 | W -0.185 ± 0.04 | V -0.172 ± 0.035 | Y -0.27 ± 0.084 | K -0.029 ± 0.084 | N -0.044 ± 0.073 | R -0.096 ± 0.032 | H -0.049 ± 0.054 | F -0.391 ± 0.094 | A -0.031 ± 0.044 | P -0.089 ± 0.03 | M -0.134 ± 0.09
V30: C 0.012 ± 0.14 | T 0.003 ± 0.071 | H -0.134 ± 0.068 | L -0.12 ± 0.034 | G -0.051 ± 0.038 | I -0.099 ± 0.086 | W -0.339 ± 0.052 | Q -0.345 ± 0.054 | S -0.076 ± 0.041 | E -0.08 ± 0.062 | M -0.042 ± 0.058 | P -0.822 ± 0.12 | D -0.763 ± 0.13 | Y -0.492 ± 0.096
V28: K 0.085 ± 0.069 | N -0.1 ± 0.098 | G -0.023 ± 0.034 | S -0.035 ± 0.032 | H -0.013 ± 0.093 | W -0.043 ± 0.024 | Q 0.027 ± 0.046 | R 0.043 ± 0.027 | M 0.016 ± 0.053 | I -0.017 ± 0.06 | A -0.004 ± 0.047 | E -0.039 ± 0.065 | P -0.921 ± 0.086 | F -0.129 ± 0.064 | D 0.017 ± 0.13 | C 0.039 ± 0.042
I16: D -0.116 ± 0.086 | W -0.016 ± 0.056 | R -0.013 ± 0.03 | N -0.082 ± 0.07 | L -0.012 ± 0.036 | V -0.014 ± 0.034 | M 0.032 ± 0.26 | C 0.036 ± 0.054 | E 0.101 ± 0.079 | Q 0.036 ± 0.074 | A -0.021 ± 0.041 | F -0.027 ± 0.064 | T -0.065 ± 0.069 | Y 0.037 ± 0.09 | K -0.025 ± 0.085 | P -0.458 ± 0.059 | H 0.099 ± 0.073
M31: N -0.191 ± 0.099 | Q 0.059 ± 0.049 | E -0.289 ± 0.084 | P -1.01 ± 0.16 | D -0.794 ± 0.33 | I -0.031 ± 0.076 | F -0.09 ± 0.087 | C 0.069 ± 0.078 | V -0.036 ± 0.033 | G -0.089 ± 0.037 | L -0.11 ± 0.037 | H -0.169 ± 0.23 | A -0.046 ± 0.051 | R -0.155 ± 0.036 | K -0.089 ± 0.079 | Y -0.322 ± 0.088 | T 0.018 ± 0.059
T20: Y -0.529 ± 0.11 | G -0.069 ± 0.032 | L -0.318 ± 0.043 | R -0.022 ± 0.032 | V -0.03 ± 0.039 | A 0.024 ± 0.043 | P -0.013 ± 0.053 | F -0.716 ± 0.19 | M -0.15 ± 0.057 | K 0.043 ± 0.069 | Q -0.043 ± 0.063 | N 0.103 ± 0.099 | H -0.047 ± 0.11 | E 0.039 ± 0.053 | W -0.516 ± 0.061 | S 0.041 ± 0.036 | I -0.101 ± 0.12 | C -0.118 ± 0.069 | D -0.101 ± 0.086
V23: T -0.058 ± 0.037 | E -0.951 ± 0.18 | Q -0.9 ± 0.13 | C -0.53 ± 0.08 | K -0.791 ± 0.14 | G -0.982 ± 0.08 | M -0.844 ± 0.15 | P -0.909 ± 0.091 | F -0.89 ± 0.16 | D -0.873 ± 0.062 | A -0.575 ± 0.06 | H -0.966 ± 0.2 | R -0.724 ± 0.066 | W -1.04 ± 0.16 | L -0.746 ± 0.058 | I -0.794 ± 0.14 | Y -0.804 ± 0.22 | S -0.839 ± 0.067
Y13: K -0.024 ± 0.063 | V -0.109 ± 0.032 | F 0.014 ± 0.03 | N 0.006 ± 0.11 | L -0.014 ± 0.036 | M 0.012 ± 0.062 | Q -0.048 ± 0.06 | I -0.022 ± 0.074 | T -0.152 ± 0.087 | G -0.119 ± 0.028 | P -0.058 ± 0.049 | H -0.114 ± 0.088 | S -0.029 ± 0.039
W18: R -0.905 ± 0.07 | Q -0.944 ± 0.13 | I -0.915 ± 0.24 | A -0.862 ± 0.11 | T -0.98 ± 0.16 | H -1 ± 0.46 | K -0.864 ± 0.15 | V -0.927 ± 0.081 | Y -0.669 ± 0.14 | N -0.134 ± 0.18 | S -0.835 ± 0.072 | D -1.05 ± 0.24 | G -0.779 ± 0.053 | M -0.957 ± 0.18 | L -0.974 ± 0.087 | F -0.901 ± 0.28
H25: Q -0.304 ± 0.067 | N -0.048 ± 0.07 | G -0.207 ± 0.031 | F -0.194 ± 0.09 | R -0.304 ± 0.035 | S -0.27 ± 0.042 | M -0.303 ± 0.079 | V -0.219 ± 0.033 | A -0.25 ± 0.039 | I -0.138 ± 0.095 | D -0.209 ± 0.084 | Y -0.002 ± 0.071 | P -0.942 ± 0.1 | T -0.12 ± 0.054 | W -0.393 ± 0.048 | C -0.266 ± 0.054 | L -0.167 ± 0.041
W26: H -0.822 ± 0.16 | C -0.866 ± 0.096 | Q -0.875 ± 0.13 | M -0.976 ± 0.14 | L -0.886 ± 0.082 | F -0.404 ± 0.12 | P -0.947 ± 0.091 | E -1 ± 0.15 | N -0.894 ± 0.21 | I -0.804 ± 0.19 | A -0.904 ± 0.079 | Y -0.514 ± 0.12 | S -1.13 ± 0.14 | R -0.855 ± 0.057 | K -0.906 ± 0.19 | T -1.03 ± 0.11
Q17: G -0.099 ± 0.04 | M -0.134 ± 0.069 | V -0.121 ± 0.043 | C -0.127 ± 0.06 | H 0.085 ± 0.082 | I -0.269 ± 0.07 | W -0.08 ± 0.048 | D 0.017 ± 0.16 | T -0.029 ± 0.098 | A -0.056 ± 0.043 | N -0.062 ± 0.1 | P -0.942 ± 0.14 | R -0.009 ± 0.036 | L -0.01 ± 0.034 | E 0.049 ± 0.07 | K -0.143 ± 0.059 | F -0.28 ± 0.1
L24: K -0.038 ± 0.085 | P -1 ± 0.13 | D -0.171 ± 0.11 | H 0.029 ± 0.069 | N -0.075 ± 0.087 | Y -0.278 ± 0.15 | I -0.091 ± 0.064 | F -0.119 ± 0.072 | S -0.104 ± 0.042 | A -0.083 ± 0.044 | E -0.088 ± 0.055 | M -0.011 ± 0.038 | G -0.109 ± 0.03 | T -0.056 ± 0.062 | C 0.003 ± 0.046
P15: I -0.356 ± 0.066 | R -0.56 ± 0.04 | C -0.742 ± 0.08 | W -1.09 ± 0.15 | S -0.765 ± 0.066 | V -0.243 ± 0.036 | Y -0.901 ± 0.28 | F -0.717 ± 0.094 | A -0.641 ± 0.067 | L -0.72 ± 0.058 | M -0.635 ± 0.11 | N -0.606 ± 0.11 | E -1 ± 0.15 | H -0.813 ± 0.23 | T -1.07 ± 0.23 | G -0.888 ± 0.073 | Q -0.878 ± 0.19
W29: C -0.663 ± 0.099 | K -0.816 ± 0.22 | D -0.57 ± 0.12 | T -0.452 ± 0.062 | L -0.815 ± 0.065 | F -0.279 ± 0.08 | I -1.09 ± 0.28 | A -0.632 ± 0.054 | V -0.939 ± 0.08 | R -0.9 ± 0.072 | Q -0.724 ± 0.087 | E -0.701 ± 0.087 | Y -0.106 ± 0.065 | S -0.439 ± 0.042 | H -0.404 ± 0.058 | G -0.776 ± 0.048
K32: A -0.141 ± 0.044 | C -0.188 ± 0.077 | Y -0.172 ± 0.082 | Q -0.061 ± 0.067 | P -0.734 ± 0.09 | N -0.024 ± 0.14 | W -0.419 ± 0.039 | T -0.01 ± 0.059 | S -0.079 ± 0.046 | L -0.443 ± 0.052 | M -0.261 ± 0.059 | V -0.36 ± 0.044 | R -0.024 ± 0.041 | F -0.41 ± 0.085 | I -0.582 ± 0.13 | E -0.024 ± 0.053

From the Human Domainome abundance scans (Beltran et al. 2025)
